# Source: the RNAGym collection of RNA variant scans (doi:10.1073/pnas.2313332121)
# Fewer inactive variants are shown than the library holds.
# B1: TPR 5TU (parent)
# chain: GGAUCUUCUCGAUCUAACAAAAAAGACAAAUCUGCCACAAAGCUUGAGAGCAUCUUCGGAUGCAGAGGCGGCAGCCUUCGGUGGCGCGAUAGCGCCAACGUUCUCAACUAUGACACGCAAAACGCGUGCUCCGUUGAAUGGAGUUUAUCAUG
# Variants of: B1
# Assay: polymerase ribozyme fitness, log enrichment relative to wild type (log ratio); higher = more active; in vitro selection for triplet polymerase activity
# Method in brief: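 Fitness measures genotype enrichment against wild-type enrichment on a logarithmic scale, with inverse-variance-weighted averaging of replicates. The logarithm is base 2, and genotypes were kept only with ≥10 input reads and ≥1 read per output in Illumina sequencing. The sequenced libraries came from one triplicate in vitro selection round, including frozen incubation at −7 °C, of PCR-built, transcribed mutant libraries of each subunit of a heterodimeric triplet polymerase ribozyme.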
row,Variant,polymerase ribozyme fitness (log ratio)
1,U82G C125G,-1.76
2,G83A G88U C125A G152U,≤ -4.2
3,C85A C125A,-2.27
4,C85A C125U,-1.7
5,G84U C103U A137C,≤ -4.2
6,G84A C96A A119U,-1.11
7,G84U C105A U139C,-4.17
8,G83U C95U C123U G143U,-3.65
9,G84U U104G C125A,-3.09
10,G84A C132G,-3.59
11,G84A A97U A147U,0.467
12,G84A C118A U146C,-1.34
13,G83A C95G,-1.23
14,G83A C95U,-0.657
15,G84A A106U G141U,-0.79
16,G83U C93U C96G U135A,-2.89
17,G84U U104G,-2.26
18,C85A C123U,-1.2
19,G84A G133C G143U,-3.92
20,G83U G94U C116A C132G G140U,-3.11
21,G83U A115C,-0.337

row,Variant,polymerase ribozyme fitness (log ratio)
1,G83A G128A,-3.83
2,G84U C129U,-1.42
3,U82G G84A G86U C118G,≤ -4.2
4,G83U A120U A137C,-3.31
5,G84U G86C C93G A98U A142U,-1.78
6,G84U U101G U134G,-3.87
7,G84U C123A,-1.79
8,G84U C93A U101C A107G G133U G141C,≤ -4.2
9,G84A G124U,-0.556
10,G84A G124A,-0.287
11,G83U G117U,-0.498
12,G83U G100U C103A C131U,≤ -4.2
13,G83C C132A,-2.69
14,G84C A142G,-3.03
15,G83U G94A,-0.328
16,U82G G92U C131A,-3.24
17,G83U A97G A142U,-3.29
18,G84A A120C C125U G136A,0.204
19,G84U U134A A142C,≤ -4.2
20,G84A C103G C149U,-3.35
21,G84A C93U,-1.83

row,Variant,polymerase ribozyme fitness (log ratio)
1,G83U U146A,-1.19
2,G83C C116A A121C,0.158
3,G83A A115G,-1.64
4,C85A C93U A119C G126U U127A,≤ -4.2
5,G83A A98U,-0.299
6,G83C C93U C96A,-1.71
7,G84U A91G U144G,-1.53
8,C85A A122G,-2.54
9,G83C G152C,-3.16
10,G83U A107U G141U,≤ -4.2
11,G83C U148G G152A,-3.67
12,G83A C87U C123G A142G,-2.09
13,G84U U102G,-4.16
14,G83A U146G,-1.33
15,G83C C131G,-3.32
16,G84A U134G,-2.31
17,G84A U134C,-0.573
18,G84U G117A,-2
19,G84U C87A C116U,≤ -4.2
20,G84U U130A U145C,-4.13
21,G83C C118A A142G,-2.35

row,Variant,polymerase ribozyme fitness (log ratio)
1,G83A A115G A150G,-2.88
2,G83C A121U,0.406
3,G84A A97U,-1.12
4,G84A A97G,-2.34
5,G84U G136A G141C,-1.29
6,G84A G88U C96G A113U U144G,≤ -4.2
7,G84U C116U G143C,-3.37
8,G83C G133A,-3.62
9,G84A C114G G124A U134C,-3.53
10,G83U C103U,0.2
11,G83U G94U C95A,-1.62
12,C85A C105U,-1.89
13,C85A C118A,-0.973
14,G84U G126A,-1.87
15,G84U G126U,-1.45
16,G84A A106G A142C,-0.922
17,U82G C95G G126C,-1.07
18,G84A U109G,-1.95
19,G83A U102C C103G U145G,≤ -4.2
20,G84A U148A,-2.74
21,G84A U148C,-2.65
